# Assay results from paper PMC7506613.
# Target: T1, IIA2 peptide (lambda-Cro mutant, helix-turn-helix) (phage lambda (designed mutant)) (UniProt P03040)
# T1 sequence: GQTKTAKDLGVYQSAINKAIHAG
# Test: fluorescence titration (520 nm)
# Conditions: fluorescein-labeled peptide; Fluorescence: 20 uM (so in the source) phosphate buffer, room temperature, 15 min; CD: 20 mM phosphate pH 7.4 (stated for peptide CD), 20 uM each; microarray: PBS …
row,Sequence,Kd [µM]
1,TCCGGGCTGGCCAGATCAGACCCCGGA [SA23 short2],9.61
2,GCAATGGTACGGTACTTCCGGGCTGGCCAGATCAGACCCCGGATGATCATCCTTGTGAGAACCACAAAAGTGCACGCTACTTTGCTAA [SA23 aptamer],1.64
3,TCCGGGG (double strand) [SA23 short1],5.81
